Target: t-PA (Homo sapiens, UniProt P00750)
Assay: SPR

Sequence of t-PA (P00750 36-562): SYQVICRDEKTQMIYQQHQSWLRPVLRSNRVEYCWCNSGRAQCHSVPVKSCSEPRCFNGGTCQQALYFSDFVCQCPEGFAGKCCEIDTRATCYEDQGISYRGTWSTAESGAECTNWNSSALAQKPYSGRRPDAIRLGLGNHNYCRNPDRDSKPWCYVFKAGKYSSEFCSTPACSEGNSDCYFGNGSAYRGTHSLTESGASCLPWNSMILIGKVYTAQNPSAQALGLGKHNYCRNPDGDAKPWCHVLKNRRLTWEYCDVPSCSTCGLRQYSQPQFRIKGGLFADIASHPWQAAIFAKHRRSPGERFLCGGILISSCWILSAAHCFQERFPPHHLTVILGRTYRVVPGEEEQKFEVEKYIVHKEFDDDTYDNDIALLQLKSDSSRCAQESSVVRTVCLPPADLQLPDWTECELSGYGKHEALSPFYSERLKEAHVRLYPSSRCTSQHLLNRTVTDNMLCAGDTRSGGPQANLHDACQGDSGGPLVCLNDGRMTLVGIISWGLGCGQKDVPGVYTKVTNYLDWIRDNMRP

Kd: 20 nM
B1: β2-glycoprotein I (protein)
chain: GRTCPKPDDLPFSTVVPLKTFYEPGEEITYSCKPGYVSRGGMRKFICPLTGLWPINTLKCTPRVCPFAGILENGAVRYTTFEYPNTISFSCNTGFYLNGADSAKCTEEGKWSPELPVCAPIICPPPSIPTFATLRVYKPSAGNNSLYRDTAVFECLPQHAMFGNDTITCTTHGNWTKLPECREVKCPFPSRPDNGFVNYPAKPTLYYKDKATFGCHDGYSLDGPEEIECTKLGNWSAMPSCKASCKVPVKKATVVYQGERVKIQEKFKNGMLHGDKVSFFCKNKEKKCSYTEDAQCIDGTIEVPKCFKEHSSLAFWKTDASDVKPC

— paper PMC2965030 (2009)
